Measured values reported in patent US20240026028A1 (JIANGSU HENGRUI PHARMACEUTICALS, published 2024).

What was measured:
[1] = molecular target: T1, HER3 protein (free, coated on the ELISA plate) (UniProt P21860 20-643, limits assumed); test: ELISA, HER3 protein coated on the plate, antibody titrated
T1 construct: also called free HER3 protein
Description: HER3 protein was diluted to 1 μg/mL with pH 7.4 PBS buffer (Shanghai BasalMedia Technologies Co., LTD., B320) and added to a 96-well microplate at 100 μL/well. The plate was incubated at 4° C. overnight. After the liquid was discarded, 300 μL of 5% skim milk (BD, 232100) diluted with PBS was added to each well for blocking, and the plate was incubated at 37° C. for 2 h. After the blocking was completed, the blocking solution was discarded; after the plate was washed 3 times with PBST buffer (pH 7.4 PBS containing 0.1% tween-20), 100 μL of a gradient diluted antibody solution was added to each well, and the plate was incubated at 37° C. for 1 h. After the incubation was completed, the plate was washed 3 times with PBST buffer, and 100 μL of 1:8000 diluted Mouse Anti-HuMan IgG (H+L) (Jackson ImmunoResearch, 209-035-088) was added to each well. The plate was incubated at 37° C. for 1 h. After the plate was washed 3 times with PBST buffer, 100 μL of TMB chromogenic substrate (KPL, 5120-0077) was added to each well, and the plate was incubated at room temperature for 10-15 min. The reaction was terminated by adding 50 μL of 1 M H₂SO₄ to each well. The absorbance readings at 450 nm were taken on a microplate reader, and the binding curves of the antibodies to antigen were fitted with software, as shown in FIG. 1.

[2] = molecular target: T2, HER3 expressed by MCF7 cells (human, UniProt P21860 20-1342); test: flow cytometry on MCF7 cells, geometric mean fluorescence
T2 construct: whole, on cells; Endogenous HER3 on MCF7 cells; also called cells expressing HER3 protein
T2 sequence (P21860 20-1342): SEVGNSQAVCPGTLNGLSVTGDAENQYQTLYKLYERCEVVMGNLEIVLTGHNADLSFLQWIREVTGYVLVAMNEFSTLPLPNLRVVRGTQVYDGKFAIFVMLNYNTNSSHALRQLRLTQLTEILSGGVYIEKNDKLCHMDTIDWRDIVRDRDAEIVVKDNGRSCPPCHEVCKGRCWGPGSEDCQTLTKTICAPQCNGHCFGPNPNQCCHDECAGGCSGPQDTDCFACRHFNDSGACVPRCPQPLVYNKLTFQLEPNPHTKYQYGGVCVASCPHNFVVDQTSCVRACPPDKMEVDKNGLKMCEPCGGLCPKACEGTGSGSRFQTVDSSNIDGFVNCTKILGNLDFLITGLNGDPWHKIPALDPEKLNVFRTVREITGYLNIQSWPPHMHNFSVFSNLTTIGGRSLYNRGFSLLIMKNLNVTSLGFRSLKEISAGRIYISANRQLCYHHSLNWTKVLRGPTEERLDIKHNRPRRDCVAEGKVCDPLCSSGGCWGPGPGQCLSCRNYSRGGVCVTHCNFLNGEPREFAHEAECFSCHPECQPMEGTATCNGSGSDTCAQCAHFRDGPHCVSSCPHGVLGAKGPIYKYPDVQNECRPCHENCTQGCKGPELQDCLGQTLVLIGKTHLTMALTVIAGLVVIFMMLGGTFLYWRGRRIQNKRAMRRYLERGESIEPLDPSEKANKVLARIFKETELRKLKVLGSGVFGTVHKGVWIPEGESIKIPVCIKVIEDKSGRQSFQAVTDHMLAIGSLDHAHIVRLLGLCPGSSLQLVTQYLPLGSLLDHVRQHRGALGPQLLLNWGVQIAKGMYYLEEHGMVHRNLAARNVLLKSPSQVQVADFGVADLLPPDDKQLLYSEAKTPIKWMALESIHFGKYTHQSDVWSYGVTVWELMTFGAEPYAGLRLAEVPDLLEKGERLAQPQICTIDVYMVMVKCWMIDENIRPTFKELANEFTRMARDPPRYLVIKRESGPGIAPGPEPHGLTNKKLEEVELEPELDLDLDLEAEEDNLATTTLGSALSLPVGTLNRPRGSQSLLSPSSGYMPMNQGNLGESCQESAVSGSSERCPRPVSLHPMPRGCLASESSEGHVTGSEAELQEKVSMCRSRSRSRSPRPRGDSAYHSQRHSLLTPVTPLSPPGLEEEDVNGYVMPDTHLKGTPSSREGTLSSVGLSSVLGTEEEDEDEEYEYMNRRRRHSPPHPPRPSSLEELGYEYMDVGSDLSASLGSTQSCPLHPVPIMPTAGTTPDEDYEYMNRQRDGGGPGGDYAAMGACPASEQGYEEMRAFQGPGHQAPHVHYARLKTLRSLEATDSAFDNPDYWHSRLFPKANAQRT
Description: MCF7 cells (ATCC, HTB-22) were suspended in FACS buffer (2% fetal bovine serum (Gibco, 10099141) pH 7.4 PBS (Sigma, P4417-100TAB)) to give a 1×10⁶ cells/mL cell suspension, which was then added to a 96-well round-bottom plate at 100 μL/well. After centrifugation and removal of the supernatant, the test antibody that was diluted with FACS buffer to different concentrations was added at 50 μL/well. The plate was incubated in the dark in a 4° C. refrigerator for 1 h. The plate was washed 3 times with FACS buffer by centrifugation at 300 g, and Alexa Fluor 488 Goat anti-HuMan IgG (H+L) (invitrogen, A-11013) at working concentration was then added. The plate was incubated in the dark in a 4° C. refrigerator for 40 min. The plate was washed 3 times with FACS buffer by centrifugation at 300 g and tested on a BD FACSCantoII flow cytometer for geometric mean fluorescence intensity.

[3] = molecular target: HER3 recombinantly expressed on CHO-K1 cells (human, UniProt P21860 20-643); test: cell-based or functional assay
Chain of HER3 recombinantly expressed on CHO-K1 cells (P21860 20-643): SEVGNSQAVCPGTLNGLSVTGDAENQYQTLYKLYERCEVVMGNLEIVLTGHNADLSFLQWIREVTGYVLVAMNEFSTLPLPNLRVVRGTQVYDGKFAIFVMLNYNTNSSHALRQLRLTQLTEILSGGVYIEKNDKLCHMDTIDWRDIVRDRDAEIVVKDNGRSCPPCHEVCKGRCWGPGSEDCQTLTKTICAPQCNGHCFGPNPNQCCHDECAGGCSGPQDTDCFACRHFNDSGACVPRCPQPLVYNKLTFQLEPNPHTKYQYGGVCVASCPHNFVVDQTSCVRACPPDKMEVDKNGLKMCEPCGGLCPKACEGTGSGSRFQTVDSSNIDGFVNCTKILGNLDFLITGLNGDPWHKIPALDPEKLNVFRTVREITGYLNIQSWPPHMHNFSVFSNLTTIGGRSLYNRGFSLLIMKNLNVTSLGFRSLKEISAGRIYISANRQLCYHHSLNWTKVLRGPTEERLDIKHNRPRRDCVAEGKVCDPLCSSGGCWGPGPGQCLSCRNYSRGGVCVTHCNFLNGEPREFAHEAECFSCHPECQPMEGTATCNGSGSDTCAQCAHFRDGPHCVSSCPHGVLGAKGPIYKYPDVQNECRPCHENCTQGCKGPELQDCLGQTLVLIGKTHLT

T1 sequence (P21860 20-643 limits assumed): as the sequence (P21860 20-643) above

Row | Binder | EC50 [1] [nM] | EC50 [2] [nM] | IC50 (nM) (DT3C antibody endocytosis assay, cell killing) [3]
1 | fully human antibody molecule HER3-29 (antibody, human IgG1, kappa, V domains shown, Human IgG1 / kappa; From a fully human natural phage library, expressed in HEK293 and Expi-CHO-S cells; also called antibody HER3-29) VH: QVQLVQSGGGLVQPGRSLRLSCAASGFTFDDYAMHWVRQAPGKGLEWVSGISWNSGSIGYADSVKGRFTISRDNAKNSLYLQMNSLRAEDTALYYCAKEGLPGLDYWGQGTLVTVSS VL: DIQMTQSPSSLSASIGDRATITCRASQHVGTYLNWYQQKPGKTPKLLISGAANLQSGVPSRFSGSGSGTDFTLTISSLQPEDFATYYCQQSYNTPPFSFGQGTKVEIKR | 0.14 | 0.057 | 0.51
2 | positive control antibody U3 (antibody, human IgG1, kappa, V domains shown, also called U1-59 (WO2007077028A2)) VH: QVQLQQWGAGLLKPSETLSLTCAVYGGSFSGYYWSWIRQPPGKGLEWIGEINHSGSTNYNPSLKSRVTISVETSKNQFSLKLSSVTAADTAVYYCARDKWTWYFDLWGRGTLVTVSS VL: not shown | 0.56 | 0.249 | 2.81
